Results published in patent US5726017.

Legend:
[1] = target: GST-gag (HIV-1 gag polyprotein, strain LAI) (HIV-1 (LAI)) (UniProt P03348); test: filter; settings: for Kd: 5 mM MgCl2, 37 C
[2] = target: GST-gag (HIV-1 gag polyprotein, strain LAI) (HIV-1 (LAI)) (UniProt P03348); test: competition; settings: 1 nM gag, scale: fold excess unlabeled Psi for 50% competition
[3] = tested on: glutathione S-transferase (GST); test: filter; settings: GST alone, low affinity
[4] = 50 mM Tris pH 7.5, 140 mM KCl, 5 mM NaCl

“GGGAAAAGCGAAUCAUACACAAGANNNNNNNNNNNNNNNNNNNNNNNNNNNNNNNNNNNNNNNNNNNNNNNNNNGCUCCGCCAGAGACCAACCGAGAA [SELEX B round 0 RNA pool]” showed a Kd [1, 4] of 1000 nM.
“GGGAAAAGCGAAUCAUACACAAGANNNNNNNNNNNNNNNNNNNNNNNNNNNNNNNNNNNNNNNNNNNNNNNNNNGCUCCGCCAGAGACCAACCGAGAA [SELEX B round 4 RNA pool]” gave a fold excess of unlabeled Psi for 50% competition ([2]; 150 pM labeled pool) of 74 and a Kd [1, 4] of 8.5 nM.
For “GGGAAAAGCGAAUCAUACACAAGANNNNNNNNNNNNNNNNNNNNNNNNNNNNNNNNNNNNNNNNNNNNNNNNNNGCUCCGCCAGAGACCAACCGAGAA [SELEX B round 8 RNA pool]”, the fold excess of unlabeled Psi for 50% competition ([2]; 150 pM labeled pool) was 630 and the Kd [1, 4] was 1.1 nM.
Work on “GGGAGACAAGAAUAAACGCUCAANNNNNNNNNNNNNNNNNNNNNNNNNNNNNNNNNNNNNNNNNNNNNNNNNNUUCGACAGGAGGCUCACAACAGGC [SELEX A round 0 RNA pool]” yielded a binding signal (% bound at 10 nM gag) ([1]; 4.0% at 0.1 nM, 6.0% without gag, negative control) of 3.5.
In the case of “GGGAGACAAGAAUAAACGCUCAANNNNNNNNNNNNNNNNNNNNNNNNNNNNNNNNNNNNNNNNNNNNNNNNNNUUCGACAGGAGGCUCACAACAGGC [SELEX A round 10 RNA pool]”, the Kd ([1]; 50 mM Tris pH 7.5, 200 mM KOAc, 10000-fold tRNA) is reported as 1.5 nM.
Work on “GGGAGACAAGAAUAAACGCUCAAUCUCGUAUCAGCACACCGGUACAAAGAGGAUGCAAAUNCGCCUGUGACUUCGACAGGAGGCUCACAACAGGC [SW10.12]” yielded a binding signal (% bound at 10 nM gag) ([1]; 0.6% at 0.1 nM, 0.6% without gag) of 11.2.
Work on “HIV-1 Psi RNA (456 nt, transcribed from XhoI-linearized pBsPVR789)” yielded a fold excess of unlabeled Psi for 50% competition ([2]; 150 pM labeled Psi) of 20, a binding signal (% bound at 10 nM gag) ([1]; 13.4% at 0.1 nM, 14.7% without gag, positive control) of 87 and a Kd ([1]; SELEX A experiment, 50 mM Tris pH 7.5, 200 mM KOAc) of 1.1 nM. For the same substance, the Kd ([1]; SELEX B experiment, 50 mM Tris pH 7.5, 140 mM KCl, 5 mM NaCl) was 5.2 nM.
With random RNA the Kd [3] was greater than 10000 nM.
